Here are results for 1 molecule from patent publication US20060110800A1 (ZymoGenetics, published 2006).

Usually Kd stands for the equilibrium constant for the complex coming apart. Read a low Kd as a tighter complex.

In this test the target is T1, 125I-IL-13 (UniProt P35225 35-146, limits assumed, 125I label (site not stated)).
T1 construct: also called labeled IL-13; interleukin 13
Nature of the test: saturation binding analysis of 125I-IL-13 on BHK cells expressing Zcytor2. The procedure: The binding of ¹²⁵I-IL-13 to wild-type and Zcytor2-transfected BHK, TF-1, and BaF3 cells was determined. BHK cells were assayed in 6-well culture plates. TF-1 and BaF3 cells were assayed in microcentrifuge tubes. Cells were combined with 500 μl of either solution A (15 ml of binding buffer [RPMI containing 20 mM Tris pH7.4, 0.05% NaN₃, and 3 mg/ml BSA] plus 263 μl of ¹²⁵I-IL-13 [5.7×10⁷ cpm/ml]) or solution B (solution A containing 15 μl of cold 25 μg/ml IL-13). After a 2-hour incubation, cells were washed three times with 500 μl binding buffer and lysed in 500 μl of 400 mM NaOH. Lysates were transferred to tubes for gamma counting.

T1 sequence (P35225 35-146 limits assumed): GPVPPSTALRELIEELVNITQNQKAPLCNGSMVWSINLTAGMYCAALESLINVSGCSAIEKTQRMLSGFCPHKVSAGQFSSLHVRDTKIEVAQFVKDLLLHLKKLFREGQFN

B1: human Zcytor2 receptor expressed on transfected BHK cells (receptor)
chain: SSDTEIKVNPPQDFEIVDPGYLGYLYLQWQPPLSLDHFKEYTVEYELKYRNIGSETWKTIITKNLHYKDGFDLNKGIEAKIHTLLPWQCTNGSEVQSSWAETTYWISPQGIPETKVQDMDCVYYNWQYLLCSWKPGIGVLLDTNYNLFYWYEGLDLALQCVDYIKADGQNIGCRFPYLEASDYKDFYICVNGSSENKPIRSSYFTFQLQNIVKPLPPVYLTFTRESSCEIKLKWGIPLGPIPARCFDYEIEIREDDTTLVTATVENETYTLKTTNETRQLCFVVRSKVNIYCSDDGIWSEWSDKQCWEGEDLSKKTLLRFWLPFGFILILVIFVTGLLLRKPNTYPKMIPEFFCDT
notes: also called BHK/Zcytor2 cells; Zcytor2-transfected BHK
Consider B1, for which the affinity, expressed as Kd, was 0.59 nM.
